{"source": "patent US20230321189", "proteins": {"B1": {"name": "purified rat m-calpain (protein)", "chain": "MAGIAMKLAKDREAAEGLGSHERAIKYLNQDYETLRNECLEAGALFQDPSFPALPSSLGFKELGPYSSKTRGIEWKRPTEICADPQFIIGGATRTDICQGALGDCWLLAAIASLTLNEEILARVVPLDQSFQENYAGIFHFQFWQYGEWVEVVVDDRLPTKDGELLFVHSAEGSEFWSALLEKAYAKINGCYEALSGGATTEGFEDFTGGIAEWYELRKPPPNLFKIIQKALEKGSLLGCSIDITSAADSEAVTYQKLVKGHAYSVTGAEEVESSGSLQKLIRIRNPWGQVEWTGKWNDNCPSWNTVDPEVRANLTERQEDGEFWMSFSDFLRHYSRLEICNLTPDTLTCDSYKKWKLTKMDGNWRRGSTAGGCRNYPNTFWMNPQYLIKLEEEDEDDEDGERGCTFLVGLIQKHRRRQRKMGEDMHTIGFGIYEVPEELTGQTNIHLSKNFFLTTRARERSDTFINLREVLNRFKLPPGEYVLVPSTFEPHKNGDFCIRVFSEKKADYQTVDDEIEANIEEIEANEEDIGDGFRRLFAQLAGEDAEISAFELQTILRRVLAKREDIKSDGFSIETCKIMVDMLDEDGSGKLGLKEFYILWTKIQKYQKIYREIDVDRSGTMNSYEMRKALEEAGFKLPCQLHQVIVARFADDELIIDFDNFVRCLVRLEILFKIFKQLDPENTGTIQLDLISWLSFSVL"}}, "target": "tropomyosin-receptor kinase B-full-length (TrkB-FL), endogenous rat, Q63604", "sequence (Q63604 32-821)": "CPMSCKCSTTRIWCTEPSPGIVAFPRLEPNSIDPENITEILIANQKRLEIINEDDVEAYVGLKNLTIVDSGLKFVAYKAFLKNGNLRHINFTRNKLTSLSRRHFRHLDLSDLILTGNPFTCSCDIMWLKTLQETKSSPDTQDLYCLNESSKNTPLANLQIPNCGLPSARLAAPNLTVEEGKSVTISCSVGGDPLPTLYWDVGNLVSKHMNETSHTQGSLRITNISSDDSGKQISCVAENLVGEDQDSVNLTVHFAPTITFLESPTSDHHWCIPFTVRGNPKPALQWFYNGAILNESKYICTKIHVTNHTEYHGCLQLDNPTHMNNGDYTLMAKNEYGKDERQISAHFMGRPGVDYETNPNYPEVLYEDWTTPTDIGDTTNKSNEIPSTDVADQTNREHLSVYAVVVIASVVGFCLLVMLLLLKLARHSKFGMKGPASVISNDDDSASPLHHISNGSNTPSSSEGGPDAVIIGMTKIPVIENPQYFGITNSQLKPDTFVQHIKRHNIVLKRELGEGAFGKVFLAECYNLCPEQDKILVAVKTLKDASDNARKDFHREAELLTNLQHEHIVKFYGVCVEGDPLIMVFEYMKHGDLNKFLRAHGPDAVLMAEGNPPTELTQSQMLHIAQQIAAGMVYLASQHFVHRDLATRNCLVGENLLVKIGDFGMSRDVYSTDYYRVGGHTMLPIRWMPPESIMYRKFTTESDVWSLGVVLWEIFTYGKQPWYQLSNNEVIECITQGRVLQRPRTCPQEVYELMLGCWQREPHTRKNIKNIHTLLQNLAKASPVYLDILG", "data": [{"protein": "B1", "values": [{"measurement": "TrkB-FL protein levels and TrkB-ICD formation in DIV8 neuronal cultures lysate (western blot, enzyme cleavage)", "value": "decrease of TrkB-FL protein levels with concomitant TrkB-ICD formation when both exogenous m-calpain (1 or 2 EU) and CaCl2 (2 mM) were added"}, {"measurement": "TrkB-FL protein levels and TrkB-ICD formation in adult rat brain cortex homogenate (western blot, enzyme cleavage)", "value": "decrease of TrkB-FL protein levels with concomitant TrkB-ICD formation when both exogenous m-calpain (1 or 2 enzymatic units, EU) and CaCl2 (2 mM) were added"}]}]}
